Three substances from publication PMC3098264, “Crystal Structure of the PAC1R Extracellular Domain Unifies a Consensus Fold for Hormone Recognition by Class B G-Protein Coupled Receptors” (PLoS ONE, 2011) can be followed below.

For the assay, the target named is T1, human PAC1R ECD (MBP-PAC1R (25–140)-His6) (Homo sapiens, UniProt P41586).
T1 construct: made in house; host or cells: E. coli Origami B (DE3), co-expressed with DsbC from pET-Duet1
T1 sequence (P41586 25-140 isoform P41586-3): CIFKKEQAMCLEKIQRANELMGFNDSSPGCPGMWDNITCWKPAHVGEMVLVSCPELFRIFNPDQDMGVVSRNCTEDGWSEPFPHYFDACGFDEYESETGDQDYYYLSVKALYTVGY
The assay is described as follows: AlphaScreen competitive peptide binding assay (unlabelled PACAP peptides vs biotin-PACAP (6–38)-NH2). The settings on record: Ala scanning mutants of PACAP (15–31), 120 µM untagged competing peptides, 40 nM protein and biotinylated PACAP, 20°C, five hours, pH 7.4. For orientation: Alpha assays give light when donor and acceptor beads are brought close together.

“Also recorded” adds a separate entry of the source.

Method: The binding of PAC1R with a 35 residue PACAP peptide was analysed using the histidine detection kit of AlphaScreen® luminescent proximity assay from PerkinElmer. All binding assays were performed without cleaving the MBP tag from the receptor ECD. Using its C-terminal His tag, PAC1R was bound to Ni-chelate coated acceptor beads (5 µg/ml) at the final concentrations of 40 nM. Similarly, biotinylated PACAP was bound to streptavidin coated donor beads (5 µg/ml) at the final concentrations of 40 nM. The protein and peptide were pre-incubated with the respective beads for one hour (to ensure maximal binding to the beads), then they were allowed to interact with each other at 20°C for five hours. To perform competitive binding assays, 120 µM of the untagged competing peptides were added at time 0 of the five hour protein-peptide interaction period. All interactions were performed in the background of 50 mM MOPS pH 7.4, 150 mM NaCl and 7 mg/ml BSA. The binding signals were measured in a 384-well microplate using an Envision 2104 plate reader (PerkinElmer). The obtained data for competitive peptide binding were fit as a non-linear regression curve using the variable slope dose-response inhibition analysis using the Prism5.0 (GraphPad). To ensure the specificity of the competing peptides, a control peptide of biotin-Gly6-His6 was used in the same assay setup.

For “K20A′: Ala scanning mutant of PACAP (15–31) (KQMAVAKYLAAVLGKRY; Pituitary adenylate cyclase-activating polypeptide 38; UniProt P18509 146-162, looked up, variant K20A)”, the “effect of Ala mutation in PACAP (15–31) on binding to PAC1R ECD (Ala scanning)” value (shortened to “effect of Ala mutation in PACAP”) is recorded as “affect the binding to PAC1R the most; also recorded: almost completely abolishes the ability of the peptide to bind the receptor ECD”.

In the case of “L27A′: Ala scanning mutant of PACAP (15–31) (KQMAVKKYLAAVAGKRY; Pituitary adenylate cyclase-activating polypeptide 38; UniProt P18509 146-162, looked up, variant L27A)”, the “effect of Ala mutation in PACAP” value is “seem to play important roles in the binding; also recorded: affect the binding to PAC1R the most”.

For the substance “V19A′: Ala scanning mutant of PACAP (15–31) (KQMAAKKYLAAVLGKRY; Pituitary adenylate cyclase-activating polypeptide 38; UniProt P18509 146-162, looked up, variant V19A)”, the “effect of Ala mutation in PACAP” value is reported as “seem to play important roles in the binding; also recorded: affect the binding to PAC1R the most”.
